According to PMC11146590:

Target: Oct4 C48S (purified) (Mus musculus, UniProt P20263 1-352, C178S)
Experiment: EMSA

Oct4 C48S (purified), sequence (P20263 whole entry C178S): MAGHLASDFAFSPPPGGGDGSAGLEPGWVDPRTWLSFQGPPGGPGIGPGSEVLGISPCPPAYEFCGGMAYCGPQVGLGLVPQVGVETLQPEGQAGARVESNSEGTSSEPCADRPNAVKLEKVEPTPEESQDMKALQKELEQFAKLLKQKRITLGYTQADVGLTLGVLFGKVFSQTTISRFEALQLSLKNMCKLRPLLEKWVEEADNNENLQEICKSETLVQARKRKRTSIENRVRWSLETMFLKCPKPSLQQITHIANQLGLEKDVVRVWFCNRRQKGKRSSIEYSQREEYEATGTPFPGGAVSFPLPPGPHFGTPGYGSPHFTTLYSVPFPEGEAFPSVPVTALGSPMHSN

B1: wild-type octamer probe (dsDNA)
DNA 1: TGTCGAATGCAAATCACT
DNA 2: AGTGATTTGCATTCGACA
  binding result: binds
